# B1: 6NMW (parent)
# chain: QGDIVVALYPYDGIHPDDLSFKKGEKMKVLEEHGEWWKAKSLLTKKEGFIPSNYVAKLN
# Variants of: B1
# Assay: folding stability dG (cDNA display proteolysis); higher = more stable
# Conditions: PBS, room temperature
row,Variant,folding stability dG [kcal/mol]
1,L19S,-0.898
2,L19V,0.435
3,L19R,-0.083
4,L19Y,0.613
5,L19C,0.728
6,L19W,0.23
7,L19I,1.46
8,L19F,1.02
9,L19T,0.168
10,L19D,-0.824
11,L19M,2.12
12,L19A,-0.055
13,L19P,-0.243
14,L19N,-0.23
15,F21I,0.968
16,F21L,-0.236
17,F21Q,-0.217
18,F21M,1.22
19,F21W,-0.416
20,F21C,0.758
21,F21V,1.74
22,F21Y,-0.495
23,K23G,1.64
24,K23W,2.06

row,Variant,folding stability dG [kcal/mol]
1,K23I,2.95
2,K23H,1.85
3,K23A,3.39
4,K23M,2.89
5,K23L,2.79
6,K23V,3.39
7,K23F,2.42
8,K23N,1.18
9,K23Q,3.22
10,K23R,3.33
11,K23T,2.75
12,K23S,2.34
13,K23Y,2.51
14,K23P,2.02
15,K23C,3.59
16,K23E,2.88
17,K23D,1.3
18,H15I,1.63
19,H15V,1.77
20,H15L,2.87
21,H15G,3.99
22,H15D,2.54
23,H15P,3.63
24,H15S,3.26

row,Variant,folding stability dG [kcal/mol]
1,H15Y,3.75
2,H15A,3.22
3,H15E,2.54
4,H15Q,3.03
5,H15R,3.93
6,H15C,4.24
7,H15K,3.48
8,H15W,3.39
9,H15N,3.65
10,H15M,2.85
11,H15F,3.5
12,S20R,2.23
13,S20P,2.81
14,S20V,2.33
15,S20K,2.48
16,S20A,2.64
17,S20F,1.18
18,S20E,1.75
19,S20T,3.13
20,S20C,2.77
21,S20Q,2.27
22,S20D,1.82
23,S20M,1.88
24,S20G,2.01

row,Variant,folding stability dG [kcal/mol]
1,S20H,2.03
2,S20N,2.01
3,S20Y,1.22
4,S20L,1.15
5,S20W,1.65
6,S20I,2.09
7,G24N,2.19
8,G24K,0.476
9,G24F,2.13
10,G24E,1.16
11,G24L,1.02
12,G24D,2.1
13,G24C,3.62
14,G24H,2.15
15,G24A,1.25
16,G24M,1.07
17,P16M,2.81
18,P16S,2.98
19,P16C,3.56
20,P16L,2.7
21,P16V,3.11
22,P16N,2.68
23,P16D,3.22
24,P16Y,2.59

row,Variant,folding stability dG [kcal/mol]
1,P16G,2.75
2,P16I,3
3,P16A,3.29
4,P16Q,3.08
5,P16K,3.4
6,P16W,2.79
7,P16T,2.87
8,P16H,2.92
9,P16R,2.87
10,P16F,2.73
11,D18K,3.08
12,D18V,3.08
13,D18Q,4.95
14,D18E,4.6
15,D18N,2.88
16,D18W,3.29
17,D18M,3.67
18,D18I,2.69
19,D18S,3.94
20,D18R,3.15
21,D18P,0.221
22,D18Y,4.04
23,D18F,4.07
24,D18L,2.84

row,Variant,folding stability dG [kcal/mol]
1,D18H,4.91
2,D18G,3.33
3,D18T,3.97
4,D18C,4.07
5,D18A,3.61
6,I14Y,3.08
7,I14V,3.97
8,I14T,3.68
9,I14W,2.68
10,K22W,1.45
11,K22I,3.84
12,K22R,3.65
13,K22T,3.15
14,K22A,3.17
15,K22M,3.46
16,K22L,3.21
17,K22Q,3.49
18,K22D,2.71
19,K22H,2.66
20,K22Y,2.29
21,K22G,2.74
22,K22C,3.28
23,K22E,3.06
24,K22P,0.747

row,Variant,folding stability dG [kcal/mol]
1,K22F,2.5
2,K22V,3.82
3,K22S,3.08
4,K22N,2.67
5,D17V,2.23
6,D17T,3.68
7,D17P,2.35
8,D17Q,3.88
9,D17M,3.47
10,D17I,2.2
11,D17E,3.72
12,D17G,4.77
13,D17K,3.5
14,D17C,4.33
15,D17L,3.6
16,D17F,3.71
17,D17R,4.21
18,D17Y,3.92
19,D17N,3.83
20,D17S,3.63
21,D17H,3.78
22,D17A,3.37
23,D17W,4.86
